From the nanobody polyreactivity screen of Harvey et al. (2022)

Experiment: yeast display, Sf9 membrane polyspecificity reagent, FACS + sequencing; frameworks hold sequencing errors
Procedure, shortened: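 Polyreactivity labels are assigned by the sorting gate from which each nanobody was recovered. The gates were low and high (top ~1%), set on anti-HA fluorescence for expression and streptavidin fluorescence for reagent binding. Before sorting, galactose-induced (36–48 hours) yeast display cells were stained for 1 hour at 4 °C with 10% biotinylated, detergent-solubilized Sf9 membrane reagent.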

Row | Sequence | polyreactivity (PSR sort gate)
1 | QVQLVESGGGLVQAGGSLRLSCAASGRTFKKKVMGWYRHAPGKERELFAAISNGGSTNYADSVKGRFTISRDNSKNTDYLQMNSLKPEDTAVYDCAAYITWGGYHTPNWGYDYWGQGTQVTVSS | low polyreactivity
2 | QVQHVESGGGLVQAGGSLRLSCAASGSLFYGNTMGWARQAPGKERELVAAISNDDSRTYYADSVKGRFTISRDNAKNTVYLQMNSLKPEDTAVYYSATRGYPYRYRQTLNYWGQGTQVTVSS | high polyreactivity
3 | QDQHVESGGGLVQAGGSLRLSCAASGRIYDPYAMGWYRPAPGKERELVATISYSDGSTYYADSVKGRFTISRDNAKNTVYLQMNSLKPEDTAVYYGNAEFVGWWGYPTVLRLEYWGQGTQVTVSS | low polyreactivity
4 | QVQLVESGGGLVQAGGSLRLSCAASGFIFLQYADMGWYRQAPGKERELVAAISYIGGSTYYADSVKGRFTISRDNAKNTVYLQMNSLKPEDTAVYYCAAEYSTAFGEYYYWGQGTQVTVSS | high polyreactivity
5 | QVQLVESGGGLVQAGGSLRLSCAASGFTFYGYAMGWYRQAPGKERELVADISYRGGSTYYADSVKGRFTISRDNAKNTVYLQMNRLKPEDTAVYYCAARATPTYYAGQREDYNYWGQGTQVTVSS | high polyreactivity
6 | QVQLVESGGGLVQAGGSLRISCAASGRTFRFYVMGWYRKAPGKERELVAAISRGGGSTYYADSVKGRFTISRDNAKNTVYLQMNSLKPEDTAVYYCNAVTSGKKYVADYNYWGQGTQVTVSS | high polyreactivity
7 | QVQLVESGGGLVQAGGSLRLSCAASGFIFVRYAMGWYRQAPGKEREMVAAISSGGSTKYADSVKGRFTISRDNAKNTVYLQMNSLKPEDTAVYYCAADATPGRGVDYWGQGTQVTVSS | high polyreactivity
8 | QVQLVESGGGLVQARGSLRLSCAASGSIFFRYTMGWYRPAPGKEWELVATITGSGSSTTYADSVKGRFTISRDNAKNTVYLQMNSLKPEDTAVSYCAAADIIDHSFPYDYWGQGTQVTVSS | low polyreactivity
9 | QVQLVESGGGLVQAGGSLRLSCAASGSTLGRNVMGWYRQAPGKERELVAAISSRGSRTYYADSVKGRFTISRDNAKNTVYLQMNSLKPEDTAVYYCNRGWAHSNAKFDYWGQGTQVTVSS | high polyreactivity
10 | QVQLVESGGGLVQAGGSIRLSCAASGRTFSKYTMGWYRQAPGKERELVAVISRSGTRTYYADSVKGRFTISRDNAKNTVYLQMNSLKAEDTAVYYCAAKDERRSFGMGYWGQGTHVTVSS | high polyreactivity
11 | QVHLVESGGGLVQAGGSLRLSCAASGSIFFVNAMGWYRQAPGKERELVADISSGGSTNYADSVKGRFTISRDNAKNTVYLQMNSLKPEDTAVYYCNTDEPPIYERFPYDYWGQGTQVTVSS | low polyreactivity
12 | QVQLVESGGGLVQAGGSLRLSCAASGSTFRRYGMGWYRQAPGKEREWVAAISKGGTRTYYADSVKGRFTISRDNAKNTVYLQMNSLKPEDTAVYYCAAAGAPSSTPQKEYYWGQGTQVTVSS | high polyreactivity
13 | QVQLVESGGGLVQAGGSLSLICAASGFIFDVYAMGWYRQAPGKERELVAAISRSGGSTHYADSVKGRFTISRDNAKNTVYLQMNSLKPEDTAVYYFATRIRVGYAKYDYWGQGTQVTVSS | high polyreactivity
14 | QVQLVESGGGLVQAGGSLRLSCAASGRIFRFYAMGWYRQAPGKERELVAAISWRGGRTYYADSVKGRFTISRDNAKNTVYLQMNSLKPEDTAVYYCNADKYETSGWKYDSWGQGTQVTVSS | low polyreactivity
15 | QVQLVESGAGLVQAGGSLRLSCAASGRTFSGYAMGWYRQAPGKERELVASITWSGGSTYYADSVKGRFTISRDNAKNTVYLQMNSLKPDDTAVYYCARDSPRGRVGFNYWGQGTQVTVSS | low polyreactivity
16 | QVQLVESGGGLVQAGGSLRLSCAASGSTFKYYALGWYRQAPGKERELVAVITSGGSTYYADSVKGRFTISRDNAKNTVYFQMNSLKPEDTAVYYCAAGVRAYNWGEYDYWGQGTQVTVSS | low polyreactivity
17 | QVQLVESGGGLVQAGGSLRLSCAASGSTYGWNAMGWSRQAPGKERELVAAISSSGGITYYADSVKGRFTISRDNAKNTVYLQMNSLKPEDTAVYYCAAERDVDWVNYWGQGTQVTVSS | low polyreactivity
18 | QVQLVESGGGLVQAGGSLRLSCAASGRTFFENAKGWYRQAPGKEREFVAAISYNGGSTYYADSVKGRFTISRDNAKNTVYLQMNSLKPEDTAVYYCAADPNYGYDYWGQGTQVTVSS | low polyreactivity
19 | QVQLVESGGGLVQAGGSLRLSCAASGRIFRYNGMGWYRQAPGKERELVAVITPRSGTTSYADSVKGRFTISRDNAKNTVYLQMNSLKPEDTAVYYCAADSDWYPSPYDYWGQGTQVTVSS | high polyreactivity
20 | QVQLVESGGGLVQAGGSLRLSCAASGSTFPTNAMGWYRQAPGKERELVAGITEGGSSTYYADSVKGRFTISRDNAKNTVYLQMTSLKPEDTAVYYCAAAARAGLKRYYYWGQGTQVTVSS | high polyreactivity
21 | QVQLVESGGGLVQAGGSLRLSCAASGRTFSSNAMGWYRQAPGKERELVASISFRGGRTYYADSVKGRFTISRDNAKNTVYLQMNSLKPEDTAVYYCVSGTKRTGYGYWGQGTQVTVSS | high polyreactivity
22 | QVQLVESGGGLVQAGGSLRLSCAASGSTFVSNAMGGYRQAPGKERELVAAISSSGGRTSYADSVKGRFTISRDNAKNTVYLQMNSLKPEDTAVYYCAARFKSVDYVQYYYWGQGTQVTVSS | low polyreactivity

Row | Sequence | polyreactivity (PSR sort gate)
23 | QVQLVESGGGLVQAGGSLRLSCAASGGTIYDNTMGWYRQAPGKERELVAAISRDGSTNYADSVKGRFTISRDNAKNTVYLQMNSLKPEDTAVYYCNKDPVSEYRSPGFPVTYDYWGQGTQVTVSS | low polyreactivity
24 | QFQLVESGGGLVQAGVSLRLSCAASGRIFSHYAMGWYRQAPGKERELVAASSSGGITYYADSVKGRFTISLDNAKNTVYLQMNCQKPEDTAVYYCAAVRRRGTTYDYWGQGTQVTVSS | high polyreactivity
25 | QVQLVESGGGLVQAGGSLRLSCAASGSTFDVNAMGWYRQAPGKERELVADITSGGSTNYADSVKGRFTISRDNAKNTVYLQMNSLKREDTAVYYCARDDWFGFIRVQEMDYWGQGTQVTVSS | low polyreactivity
26 | QVQLVESGGGLVQAGGSLRLSCAASGFILWPYAMGWYRQEPGKERELVAAITTGGSTNYADSVKGRFTISRDNAKNTVYLQMNSLKPEDTAVYYCAKGYYFGYYEFDYWGQGTQVTVSS | high polyreactivity
27 | QVQLVESGGGLVHAGGSLRLSCAASGGTFGYYAMGWYRQAPGQERDLVAAISGSGGSTYYADSVKGRYTISRDHAKNTFYFQMNSLKPEDTAVYYCNAYIFGEVPNNYYWGQGTQVTVSS | high polyreactivity
28 | QVQLVESVGGLVQAGGSLRLSCSASGRTFAFYAMGWYRQAPGKVRELVASISSTGDRTYYADSVKGRFTISRDNAKNTVYLQMNSLIPEDTAVYYCAARWRYTYYYWGQGTQVTVSS | high polyreactivity
29 | QGQLVESGGGLVQAGGRLRLSCAASGRIFPNNAMGWYRQAPGKERELVAAISRSGGRTYYADSVKGRFTISRDNAKNTVYLQMNSLKPEDTAVYYCAARSWGGYDSRGYWGQGTQVTVSS | high polyreactivity
30 | QVQLVESGGGLVQAGGSLRLSCAASGSTFVYYAMGWYRQAPGKERELVASITGGGRTNYADSVKGRFTISRENAKNNVYLQMNSLKPEDTAVYYCAKDHASYYYWPSVLPYDHWGQGSQVTVSS | low polyreactivity
31 | QVQLVESGGGLVQAGGSLRLICAASGSTFDVNAMGWYRQAPGKEREFVAANSWSGGSTYYADSVKGRFTISRDIAKNTVYLQMNSLKPEDTAVYYCNADYVFKDGLGFRGLAGGDYWGQGTQVTVSS | low polyreactivity
32 | QVQLVESGGGLVQAGGRLRISCAASGRIFPYNAMGWYRQAPGKERELVAAISFGGGRTYYADSVKGRFTISRDNAKNTVYLQMNSMKPEDTAVYYCNTASPQDIVFRVFYGGDYWGQGTQVTVSS | low polyreactivity
33 | QVQLVESGGGLVQAGGSLRLSSAASGSTFRGNAMGWYRQAPGKERELVAAITGRGGRTYYADSVKGRFTISRDNAKNTVYLQMNSLKPEDTAVYYCAAYSRYKPYGITAYDYWGLGTQVTVSS | high polyreactivity
34 | QVQLVESGGGLVQAGGSLRLSCAASGTTFGQYAKGWYRQAPGKERDLLAAISSGGRTNYADSVKGRFTISRDNAKNTVYLQMNCVKPEDSAVYDCAARYYFPFRRFRRMDYWGQGTQVTVSS | high polyreactivity
35 | QVQLVESGGGLVQAGGSLRLSCAASGSTFHINAMGWYRQAPGKERELVADINWSGGSTYYADSVKGRFTISRDNAKNTVYLQMNSLKPEDTAVYYCAADVGVFTYSPYDAGEHDYWGQGTQVTVSS | low polyreactivity
36 | QVQLVESGGGLVQGGGSLRIICAASGFTFTDYAMGWYRQAPGKERELVAAIDGSGGRTYYAYSVKGRFTISRDNAKNTFYLQMNSLKPEHTAVYYCAAGLYSRLYWYRLDYWGQGTQVTVSS | low polyreactivity
37 | QVQLVESGGGLVQAGGSLRLICAASGSNFYVYAMGWYRQAPGKERELVAAISDSGSRTYYADSVKGRFTISRDNAKNTVYLKKNSLKPEDTAVYYCAALTRRTGYTYKEYYWGQGTQVTVSS | high polyreactivity
38 | QVQLVESGGGLVHAGGTLRLSCAASGSIFARYAMGWYRQAPVKERELVAAISRNGGSTYYADSVKGRFTISRDNAKNTVYLQMNSLNPEDTAVYYCAASYYVLYTREYDYWGQGSQVTVSS | low polyreactivity
39 | QVQLVESGGGLVQAGGSLRLSCAASGLTFTSYVMGWYRQAPGKERELVAAIRWSGGRTYYADSVKGRFTISRDNAKNTVYLQMNSLKPEDTAVYYCAAQWYSGSHGYYYWGQGTQVTVSS | high polyreactivity
40 | QVQLVESGGGLVQAGGSLRLSCAASGRIFPYYAMGWYRQAPGKERELVATITWRGGITYYADSVKGRFTISRDNAKNTVYLQMNSLKPEDTAVYYCAVRKVYRSSFDYWGQGTQVTVSS | high polyreactivity
41 | QVQLVESGGGLVQAGGSLRLSCAASGSTYTLNAMGWYRQAPGKERELVADITSGGGGTYYADSVKGRFTISRDNAKNTVYLQMNSLKPEDTAVYYCAADDFHSLLGYWYGLFDYWGQGTQVTVSS | low polyreactivity
42 | QVHLVESGGGLVQAGGSLRLSCAASGFTFPYYAMGWYRQAPGKERELVATIRSGGSTYYADSVKGRFTISRDNAKNSVYLQMNSLKPEDTAVYYCAKYQGLYSYEKYGYWGQGTQVTVSS | low polyreactivity
43 | QVQHGESGGGLLQAGGSLRLSCAASGFIFGVYEMGWYRQAPGKDTELVAAIMRSGGSTYYADSVKGRFTISRDIAKNTVYLQMNSLKPEDTAVYYCAAAYTGKYRKYDYWGQGTQVTVSS | high polyreactivity
